Results on 41 sequences are retold here after the nanobody polyreactivity screen of Harvey et al. (2022).

A short description of this data set: yeast display, Sf9 membrane polyspecificity reagent, FACS + sequencing; frameworks hold sequencing errors. The method, boiled down:
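Galactose-induced (36–48 hours) yeast carrying a synthetic nanobody display library were exposed to 10% biotinylated, detergent-solubilized Sf9 membrane reagent at 4 °C for 1 hour. FACS followed streptavidin microbead enrichment, using low and high (top ~1%) gates for expression (anti-HA) and reagent binding (streptavidin). Colony PCR, MiSeq 2 × 250 sequencing and CDR-length filtering followed. Labels for polyreactivity reflect the gate of origin.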
Take “QVQLVESVGCLVQAGGSLRLSCAASGFIFDYYAMGRYRHGPGKERELVAGISWSGGSTYYADSVKGRFTISSDNSKNTVYLQMNSLIPEDTAVYYCNAEDSVPFYLYYYWGQGSQVTVSS”: the “polyreactivity (PSR sort gate)” value was “low polyreactivity”.
With “QVQLVESVGCLVQAGGSLRLSCAATVSIFDRYAMGWNRQPPGKESELVAAISKSGGRTYYADSVKGRFTISRDNAKNTVYLQMNSLKPEDSAVYDCAADPLLGYLSHYYWGQGTQVTVSS”, the “polyreactivity (PSR sort gate)” value is reported as “high polyreactivity”.
Under “QVQLVESVGDLVQAGGSLRLSCAASGRNFPVYAMGWYRQAPGKERELVAAITFRSGSTYYADSVKGRFTISRDNAKNTVYLQMNSLKPEDTAVYYCAADFSVQYVGYSAIEGYWGQGTQVTVSS” stands “high polyreactivity”; under “QVQLVESVGGLDQAGGRLRLSCAASGFTIRPYVRRAYRQAPGTERELVAGISTGGSTYYADSVKGRFTISRDNAQNTVYLQMNRLKPEDTAVYDCAKRGKQYRKMNYWGQGTQVTVSS”, “high polyreactivity”.
Under “QVQLVESVGGLDQAGGSLRLSCAASALIFPRYDMGSYRQAPGKERELDAAITSGGGTYNADSVKGRFTISRDNAKITVYLQMNSLKPEDTAVYYCAAGPVFGGGGYDYWGQGTQVTVSS” stands “low polyreactivity”; under “QVQLVESVGGLDQAGGSLRLSCAASGSIFVGYAMGWYRQAPGKERELVAAITRSGVSTYYADSVKGRFTISRDNAKNTVYLQMNSLKPEDTAVYYCAADPTYRYWRVPWYEYDYWGQGTQVTVSS”, “low polyreactivity”; under “QVQLVESVGGLDQAGGSLRLSCAASGSTFGGYAMGWYRQAPGKERELVAAISSSGTSTYYADSVKGRFTISRDNAKNTVYLQMNSLKPEDNAVYYCATDFSFFSRFDYWGQGTQVTVSS”, “low polyreactivity”.
In the case of “QVQLVESVGGLDQAGGSLRLSCAASGSTFKRYVMGWYRQAPGKERELVAAITWSGTRTYYADSVKGRFTLSRDNAKNTVYLQMNSLKPEDTAVYYCAARLYGGYDWGQGTQVTVSS” it was “high polyreactivity”; in that of “QVQLVESVGGLDQAGGSLRLSCPASGRTFGKYAMGWYRQSPGKERELVARISRRGGTTYYADSVKGRFTISRDNAKNTVYLQLNSLKPEDTAVYYCNARRRDYRHWYDYWGQGTQVTVSS”, “high polyreactivity”.
With “QVQLVESVGGLDQARGSLRLSCAASGFIYRYYPMGWYRQSPGKERELVASIDWSGGNTYYADSVKGRFTISRDKAKYTVYLQMNSLKPEDTAVYYCNRRGMDWGLGTQVTVSS”, the “polyreactivity (PSR sort gate)” value was “low polyreactivity”.
As for “QVQLVESVGGLFQAGGSIRLSCAASGRTFFVYAMGWYRQAPGKERVLVAVISFTVDSTFYEDSVKGRFTISRDNAKNTVYLQMNSLKPEDTAVYYCAADVRRVFSKYSYYLYFDLDYWGQGTQVTVSS”, the “polyreactivity (PSR sort gate)” value is given as “low polyreactivity”.
In the case of “QVQLVESVGGLGQAGGSLRLSCASSGFTFARYAMAWYIQAPGKERELVAAISGSGSTYYADSVKGRFTISRDNAKNSVYLQMNSLKTEDTAVYYCNAGNFGRFGFWGQGTQVTVSS”, the “polyreactivity (PSR sort gate)” value is given as “high polyreactivity”.
In the case of “QVQLVESVGGLLQAGGSLRLSCADSGSTFTTNVMGWYRQAPGKERELVAAISKRGGSTFYADSVKGRFTISRDNAKNTVYRQMNSLKPEDTAVYYCKALRRGVRDPYGYWGQGTQVTVSS” it was “high polyreactivity”; in that of “QVQLVESVGGLLQAGGTLRLSCAASGITFLDYGRGWYRQATGKERELVATINSGGSTNYADSVKGRFTISRDNAKHTVYLLMNSLKAEDTAVYYCDADYGSDYPKGDYWGQGTQVTVTS”, “low polyreactivity”.
In the case of “QVQLVESVGGLVQAAGSLRLSCAASGRIFSPYAMGWYRQAPGKESELVAAISWSGGTTYYADSVKGRFTISRDNAKNTVYLQMNSLKPEDTAVYYCAADLGYQDPLDYYWGQGTQVTVSS” it was “high polyreactivity”.
Consider “QVQLVESVGGLVQAGGILRLSCAASGNTFPAYAMGWYRQAPGKERELVATISWSTGSTNYADSVKGRFTISRDTAKNTVYLQMNSLKPEDTAVYYCAASYWCYEYDYWGLGTQVTVSS”, for which the “polyreactivity (PSR sort gate)” value is reported as “low polyreactivity”.
Under “QVQLVESVGGLVQAGGRLRLSCAASGRIFSFYAMGWYRPAPGKEREFVAAITYSGGSSYYADSVKGRFTNSRDNAKKTVYLQMNSLKPEDTAVYYCAARYRYITKYDYWGQGTQVTVSS” stands “high polyreactivity”; under “QVQLVESVGGLVQAGGRLRLTCAASGFIFTHYAMVWYRQAPGKERELVAAISWNGGRTYYADSVKGRFTISRDNANITVYLQMNSLKPEDTAVYYCAARIYLSKSFNFWGQGTQVTVSS”, “high polyreactivity”; under “QVQLVESVGGLVQAGGSHRLSCAASGLTFEWYTMGWYRQAPGKERELVAVITVSGSSTYYADSVKGRFTISRDNAKNTVYLQMNSLKPEDTAVYYCNADWSFYSYTLYDYWGQGTQVTVSS”, “low polyreactivity”.
In the case of “QVQLVESVGGLVQAGGSLPLSSAASGSIFYRYALGWYRQAPGKERELVAAISDRSGSTYYADSVKGRFTISRDNAKNTVYLQMNSLKPEATAVYYCAASYNYRAAGYGLSRYYYWGQGTQVTVSS”, the “polyreactivity (PSR sort gate)” value was “high polyreactivity”.
Take “QVQLVESVGGLVQAGGSLRFSCAASGFIFNYNALGWYRQAPGTERELVAAISGTGVRTYYADSVKGRFTISRDNAKNTVYLQMNSLKPEDTAVYYCNAYYGYIPVSGYRNDYWGQGTQVTVSS”: the “polyreactivity (PSR sort gate)” value is listed as “low polyreactivity”.
In the case of “QVQLVESVGGLVQAGGSLRLICAASGRTFSRNAMGWYRQAPGKERELVAGISWRGTSTYYADSVKGRFTISRDNAKNTVFLQMNSLKPEDTAVYYCNRVFEYWSEYDYWGQGTQVTVSS” it was “high polyreactivity”; in that of “QVQLVESVGGLVQAGGSLRLRCAASGSTFYKNAMGRYRQAPGIERELVAGISRRGGRTYYADSVKGRFTISRDNAKNTVYLQMNSLKPEDTAVFYCNTGHEVDEYDYWGQGTQVTVSS”, “low polyreactivity”.
As for “QVQLVESVGGLVQAGGSLRLSCAASGFIFKRYAMGWYRQAPGKERELVAAITGSGGSTYYADSVKGRFTISRDNAKNTVYLQMNSLKPEDTAVYYCARGNGGSLDYWGQGTQVTVSS”, the “polyreactivity (PSR sort gate)” value was “high polyreactivity”.
In the case of “QVQLVESVGGLVQAGGSLRLSCAASGFIFYQNAMGWYRQAPGKERELVAAISTTGSRTYYADSVKGRFTISRDNAKNTVYLQMNSLKPEDTAVYYCNAPRRVNYDYWGQGTQVTVSS” it was “high polyreactivity”; in that of “QVQLVESVGGLVQAGGSLRLSCAASGFIIVEYDMGWYRQAPGKEREFVAAINFSGGSTYYADSVKGRFTISRDNAKNTVYLQMNSLKPEDNAVYYCAADVVRYYYTYYYWGQGTHVTVSS”, “low polyreactivity”; in that of “QVQLVESVGGLVQAGGSLRLSCAASGFTFGPYDMGWYRQAPGKERELVAVIIGGDSTNYADSVKGRFTISRDNAKNTVYLQMNSLKPEDTAVYYCAADYIDRVGWMDYWGQGTQVTVSS”, “low polyreactivity”.
Under “QVQLVESVGGLVQAGGSLRLSCAASGFTFHLYAMGWYRPAPGKERELDAAISQSGDSTYYADSVKGRFTISRDNAKNTVYLQMNSLKPEDTAVYYVNADNDGVVWSYPFDFDYWGQGTQVTVSS” stands “low polyreactivity”.
In the case of “QVQLVESVGGLVQAGGSLRLSCAASGFTIGYNFMGWYRQAPGKERELVATISWNGARTYYADSVKGRFTISRDNAKNTVYLQMNSLKPEDTAVYYCAARRYYRGEYDYWGQGTQVTVSS” it was “low polyreactivity”.
With “QVQLVESVGGLVQAGGSLRLSCAASGFTIYPYAMGWYRQAPGKERELVAAISSSGGNTYYADSVKGRFTISRDNAKNTVYLQMNSLKPEDTAVYYCNARVYRWAIAPDDDSWGQGTQVTVSS”, the “polyreactivity (PSR sort gate)” value is on record as “high polyreactivity”.
As to “QVQLVESVGGLVQAGGSLRLSCAASGGIFGVYAMGWYRQAPGKERELVAAISNSDTSTSYADSVMGRFTISRDIAKNTVYLQMNSVYPEDTAVYYCNADSPSLSGDYWGQGTQVTVSS”, the “polyreactivity (PSR sort gate)” value is “low polyreactivity”.
For the sequence “QVQLVESVGGLVQAGGSLRLSCAASGGIFWVYAMGWYRQAPGKERELVASISWNGGSTNYADSVKGLFTISRDNAKNTVYLQMNSLKPEDTAVYYCAAEYWTSYADYRYDYWGQGTQVTVSS”, the “polyreactivity (PSR sort gate)” value is listed as “low polyreactivity”.
In the case of “QVQLVESVGGLVQAGGSLRLSCAASGGTFKTNAMGWYIQAPGKERELVAAITGSGTSTYYADSVKGRFTISRDNAKNTVYLQMNSLKPEDTAVYYCAADKLYQPGIGDDYWGQGNQVTVSS” it was “low polyreactivity”; in that of “QVQLVESVGGLVQAGGSLRLSCAASGGTFSFNAMGWYRQAPGKERELVAAITQTGDRTYYADSVKGRFTISRDNAKNTVYLQMNSLKPEDTAVYYCAADDIYYQGIYRGSEFDYRGQGTQVTVSS”, “low polyreactivity”; in that of “QVQLVESVGGLVQAGGSLRLSCAASGIFVDNAMGWYRQAPGTETELVAPITSSTDSTYYADSVKGRFTISRDNAKNTVALQMNSLKPEDTAVYYCAVARPGGFYFLVHYGYGYWGQGTQVTVSS”, “low polyreactivity”.
With “QVQLVESVGGLVQAGGSLRLSCAASGIIFSCYAMGWYRQAPGKERELVAAISSSGGTTFYADSVKGRFTISRDNAKNTVYLQMNSLKPVDTAVYYCAVVGPPYYTWRVWRPAYDYWGQGTQVTVSS”, the “polyreactivity (PSR sort gate)” value was “high polyreactivity”.
On to “QVQLVESVGGLVQAGGSLRLSCAASGITFLQYAMGWYIQAPGKERELVATINSGGSTNYADSVKGRFTISRDNAKNTVYLQMNSLKPEDTAVYYCAADYGSDYTKGDYWGQGTQVTVSS”, for which the “polyreactivity (PSR sort gate)” value is given as “low polyreactivity”.
“QVQLVESVGGLVQAGGSLRLSCAASGITFNRYAMGWYRQAPGKERELVAAITGGGSRTFYADSVKGRFTISGDNAKNTVDLQMNSLKPEDTAVYYCAKGLSTGRAYRGYDYWGQGTQVTVSS”: the “polyreactivity (PSR sort gate)” value is recorded as “high polyreactivity”.
In the case of “QVQLVESVGGLVQAGGSLRLSCAASGITFRYYAMGWYRQAPGKERELVADINRGSDTNYADSVKGRFTISRDNAKNTVYLQMNSLKPEDTAVYYCAARSFRSRFRLYIVEFGGYDYWGQGTQVTVSS” it was “low polyreactivity”; in that of “QVQLVESVGGLVQAGGSLRLSCAASGLIFATYAMGWYRQAPGKESELVADITTTGSTYYADSVKGRFTISRDNAKNTDYLQMNSLKPEATAVYYCAAYCRLLSGYDFDYWGKGTQVTVSS”, “high polyreactivity”; in that of “QVQLVESVGGLVQAGGSLRLSCAASGLTSGLNAMGWYRQAPGKERELVATIRTNGGSTYYADSVKGRFTISRDNAKNTVYLQMNSLKPEDTAVYYCAADSVLDRPVLYLWPWYLGDYWGQGTQVTVSS”, “low polyreactivity”.
